Experimental data reported in patent US5985836A, “Alpha-1 proteinase inhibitor binding peptides” (Bayer Corporation, priority 1998, dated 1999).
Ends that are not written are not given here.

Assays:
[1] = biological target: T1, A1PI (Homo sapiens, UniProt P01009); assay: A1PI binding on peptide-resin column, injection of 1 mg A1PI in equilibration buffer; details: 1 mg AlPI
T1 construct: Human plasma is currently the only approved source of therapeutic AlPI
Summary of the method: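 Percent of total eluted A1PI per fraction (flowthrough, NaCl steps, 2% acetic acid) determined by A280 integration or immunonephelometry. Columns of peptide-derivatized A-Totda-Toyopearl resin (0.1 mmole/g) received 1 mg A1PI at 4 °C or 20 °C, flow 865 or 523 μl/min.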

[2] = biological target: T1, A1PI; assay: A1PI yield from dialyzed (aqueous) Effluent II+III; type: binding; details: 4° C.
Protocol: Effluent II+III was dialyzed against equilibration buffer at 4° C. to remove the ethanol using a 15,000 molecular weight cut-off membrane. Nephelometry of the Eff. […] A portion of the identified sequences were assayed under the same conditions applied for neat Eff. II+III at 4° C. […] II+III compared to the neat, ethanol-containing feed. The binding strength differed for the aqueous feed as more AlPI eluted in 1M NaCl for the aqueous feed. The AlPI eluted in the 1M NaCl fractions was not as enriched as that eluted in the acid eluates.

[3] = biological target: T2, AlPI (Homo sapiens, UniProt P01009); assay: Effect of peptide density on AlPI capture from Eff. II+III, 4M GdnHCl final strip; type: binding; details: 4° C.; for Mass AlPI per Eluate Fraction, 1M NaCl / Mass AlPI per Eluate Fraction, Flowthrough / Mass AlPI per Eluate Fraction, 4M GdnHCl: * Below detection limit
T2 construct: Eff; II+III is a process intermediate in the Cohn plasma fractionation process; tissue Bayer Corporation (Clayton, N.C.); host or cells: plasma fraction: Cohn Effluent II+III
T2 sequence (P01009 25-418): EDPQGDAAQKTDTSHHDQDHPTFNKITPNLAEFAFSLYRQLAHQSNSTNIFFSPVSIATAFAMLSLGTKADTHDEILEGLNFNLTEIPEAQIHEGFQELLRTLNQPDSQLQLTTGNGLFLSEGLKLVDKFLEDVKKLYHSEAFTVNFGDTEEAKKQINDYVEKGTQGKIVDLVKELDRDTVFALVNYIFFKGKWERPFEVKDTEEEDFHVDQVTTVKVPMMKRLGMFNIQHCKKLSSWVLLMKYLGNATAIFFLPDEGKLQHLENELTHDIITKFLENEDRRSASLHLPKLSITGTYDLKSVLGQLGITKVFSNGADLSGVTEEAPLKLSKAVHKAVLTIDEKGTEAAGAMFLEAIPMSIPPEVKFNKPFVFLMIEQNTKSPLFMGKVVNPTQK
Protocol: The substitution density of the peptide VIFLVR (SEQ ID NO:37) on the Tosohaas resin was reduced by the varying the ratio of Fmoc-L-Ala/Boc-L-Ala following linkage of the Totda linker. A similar procedure was outlined previously (Buettner et al. 1997). The peptide was then synthesized onto these resins. A 1.0 ml aliquot of neat Eff. II+III was injected onto the columns, and the chromatography cycle was the same as used for other studies involving Eff. II+III. The one exception was the use of 4M guanidine hydrochloride (GdnHCl) in lieu of 2% acetic acid as the final strip.

[4] = peptide density 135 μmol/g, 4° C.
[5] = peptide density 135 μmol/g, 20° C.
[6] = sequence truncations, 4° C., immunonephelometry
[7] = sequence truncations, 20° C., immunonephelometry
[8] = 1 ml dialyzed Eff. II+III (ethanol removed)
[9] = A1PI, 1 ml dialyzed Eff. II+III

T1 sequence (P01009 25-418): as above

## VIFLVR
[1]; [4]
  Percent AlPI Eluted by Fraction, 1M NaCl: 0%
  Percent AlPI Eluted by Fraction, 2% Acetic Acid: 100%
  Percent AlPI Eluted by Fraction, Flowthrough: 0%
[1]; [5]
  Percent AlPI Eluted by Fraction, 1M NaCl: 0%
  Percent AlPI Eluted by Fraction, 2% Acetic Acid: 95%
  Percent AlPI Eluted by Fraction, Flowthrough: 5%
[1]; sequence order, 4° C.
  Percent AlPI Eluted by Fraction, 1M NaCl: 3%
  Percent AlPI Eluted by Fraction, 2% Acetic Acid: 97%
  Percent AlPI Eluted by Fraction, Flowthrough: 0%
[1]; sequence order, 20° C.
  Percent AlPI Eluted by Fraction, 1M NaCl: 7%
  Percent AlPI Eluted by Fraction, 2% Acetic Acid: 93%
  Percent AlPI Eluted by Fraction, Flowthrough: 0%
[1]; [6]
  Percent AlPI Eluted by Fraction, 1M NaCl: 3%
  Percent AlPI Eluted by Fraction, 2% Acetic Acid: 97%
  Percent AlPI Eluted by Fraction, Flowthrough: 0%
[1]; [7]
  Percent AlPI Eluted by Fraction, 1M NaCl: 7%
  Percent AlPI Eluted by Fraction, 2% Acetic Acid: 93%
  Percent AlPI Eluted by Fraction, Flowthrough: 0%
[2]; [8]
  Mass A1PI per Eluate Fraction, 1M NaCl: 0.09 mg
  Mass A1PI per Eluate Fraction, 2% Acetic Acid: 0.37 mg
  Mass A1PI per Eluate Fraction, Flowthrough: 0.25 mg
[2]; [9]
  Percent Eluted by Fraction, 1M NaCl: 13%
  Percent Eluted by Fraction, 2% Acetic Acid: 51%
  Percent Eluted by Fraction, Flowthrough: 36%
[3]; peptide density 6 μmol/g
  Percent Eluted by Fraction, 1M NaCl: 12%
  Percent Eluted by Fraction, 4M GdnHCl: 0%
  Percent Eluted by Fraction, Flowthrough: 88%
  Mass AlPI per Eluate Fraction, 1M NaCl: 0.09 mg
  Mass AlPI per Eluate Fraction, Flowthrough: 0.69 mg
[3]; peptide density 17 μmol/g
  Percent Eluted by Fraction, 1M NaCl: 44%
  Percent Eluted by Fraction, 4M GdnHCl: 7%
  Percent Eluted by Fraction, Flowthrough: 49%
  Mass AlPI per Eluate Fraction, 1M NaCl: 0.36 mg
  Mass AlPI per Eluate Fraction, 4M GdnHCl: 0.05 mg
  Mass AlPI per Eluate Fraction, Flowthrough: 0.39 mg
[3]; peptide density 54 μmol/g
  Percent Eluted by Fraction, 1M NaCl: 0%
  Percent Eluted by Fraction, 4M GdnHCl: 74%
  Percent Eluted by Fraction, Flowthrough: 26%
  Mass AlPI per Eluate Fraction, 4M GdnHCl: 0.57 mg
  Mass AlPI per Eluate Fraction, Flowthrough: 0.20 mg
[3]; peptide density 62 μmol/g
  Percent Eluted by Fraction, 1M NaCl: 0%
  Percent Eluted by Fraction, 4M GdnHCl: 83%
  Percent Eluted by Fraction, Flowthrough: 17%
  Mass AlPI per Eluate Fraction, 4M GdnHCl: 0.70 mg
  Mass AlPI per Eluate Fraction, Flowthrough: 0.14 mg
[3]; peptide density 70 μmol/g
  Percent Eluted by Fraction, 1M NaCl: 0%
  Percent Eluted by Fraction, 4M GdnHCl: 72%
  Percent Eluted by Fraction, Flowthrough: 28%
  Mass AlPI per Eluate Fraction, 4M GdnHCl: 0.69 mg
  Mass AlPI per Eluate Fraction, Flowthrough: 0.26 mg
[3]; peptide density 100 μmol/g
  Percent Eluted by Fraction, 1M NaCl: 0%
  Percent Eluted by Fraction, 4M GdnHCl: 82%
  Percent Eluted by Fraction, Flowthrough: 18%
  Mass AlPI per Eluate Fraction, 4M GdnHCl: 0.57 mg
  Mass AlPI per Eluate Fraction, Flowthrough: 0.13 mg
